Reference: patent US20230303690A1 (published 2023)
Where two headings read alike, the source gives them in different places.

Legend:
[1] = biological target: T1, LAG3 Protein, Human, Recombinant (His Tag) (Sino Biological Catalog No. 16498-H08H) (human, UniProt P18627 23-450); assay: SPR (Biacore), sdAb captured by anti-human Fc, LAG3-His analyte
T1 construct: Bought protein; also called hLAG3-His; LAG3-His; not shown: His tag
T1 sequence (looked up): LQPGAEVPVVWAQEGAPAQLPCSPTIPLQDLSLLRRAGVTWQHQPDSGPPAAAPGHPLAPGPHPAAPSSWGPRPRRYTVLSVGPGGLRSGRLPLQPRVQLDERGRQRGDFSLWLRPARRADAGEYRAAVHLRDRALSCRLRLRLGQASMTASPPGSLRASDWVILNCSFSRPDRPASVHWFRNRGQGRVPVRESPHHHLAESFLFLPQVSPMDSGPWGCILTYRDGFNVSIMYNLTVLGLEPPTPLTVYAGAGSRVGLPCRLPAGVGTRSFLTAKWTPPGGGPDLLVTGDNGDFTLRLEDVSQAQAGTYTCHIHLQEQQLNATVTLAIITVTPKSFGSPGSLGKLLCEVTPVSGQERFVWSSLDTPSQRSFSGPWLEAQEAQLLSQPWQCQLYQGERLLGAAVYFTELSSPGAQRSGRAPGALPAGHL
Method: The binding of the single domain antibodies to recombinant human LAG3 protein (rhLAG3) was examined by Biacore™ assay. […] The coating was carried out according to the manufacturer’s instructions accompanying the kit (Catalog No. BR-1008-39, GE). […] The chip surface was regenerated after each cycle with 25 mM NaOH followed by HBS-EP wash provided in the kit.

[2] = biological target: human LAG3 expressed on cells (human) (UniProt P18627); assay: cell ELISA, 293T-LAG3 cells
[3] = biological target: T1, LAG3 Protein, Human, Recombinant (His …); assay: ELISA, coated hLAG3-His
Method: (§1) Plates were coated with 100 µL per well of Coating Solution, and then covered, and incubated overnight (12-18 hours) at 2-8° C. The wells were aspirated and washed 1 time with >200 µL of Wash buffer per well, inverted and tapped on absorbent paper to remove excess liquid. The plates were blocked with 200 µL per well with Blocking buffer (1×PBS+4% milk) for 1 hour at room temperature, aspirated, inverted, and tapped on absorbent paper to remove excess liquid. Standards and sample dilutions were prepared in Blocking buffer. 100 µL of standards (in duplicate) and samples were pipetted into designated wells. After incubation for 1 hour at room temperature with gentle continual shaking (~500 rpm), the wells were aspirate and washed 3 times with >200 µL of Wash buffer per well, inverted and tapped on absorbent paper to remove excess liquid.
(§2) The primary antibody solution was diluted with Blocking buffer. See Table 14 for recommended primary antibody dilution. 100 µL of the primary antibody solution was added into each well and incubated for 2 hours at room temperature with gentle continual shaking (~500 rpm). The wells were aspirated and washed 3 times with >200 µL of Wash buffer per well, inverted and tapped on absorbent paper to remove excess liquid. The working solution of secondary antibody was made with Blocking buffer by diluting the secondary antibody by 2,500 times. 100 µL of secondary antibody working solution was added into each well and incubated for 30 minutes at room temperature. The wells were aspirated and washed 5 times with >200 µL of Wash buffer per well, inverted and tapped on absorbent paper to remove excess liquid. 100 µL of TMB substrate solution (Biopanda, TMB-S-004) was added to each well and incubated for 30 minutes at room temperature. 100 µL of Stop solution (Solarbio, C1058) was added to each well. Absorbance at 450 nm was measured within 30 minutes of adding Stop solution. Results were calculated using a log-log or 4-parameter curve fit.

[4] = biological target: T1, LAG3 Protein, Human, Recombinant (His …); assay: ELISA, coated hLAG3-His; remark: listed apart in the source
Method: as §1
as §2, with “well.” for “well. Absorbance at 450 nm was measured within 30 minutes of adding Stop solution. Results were calculated using a log-log or 4-parameter curve fit.”

[5] = biological target: T2, human LAG3 expressed on cells (human, UniProt P18627 23-525); assay: cell ELISA, 293T-hLAG3 cells
T2 construct: whole, on cells
T2 sequence (looked up): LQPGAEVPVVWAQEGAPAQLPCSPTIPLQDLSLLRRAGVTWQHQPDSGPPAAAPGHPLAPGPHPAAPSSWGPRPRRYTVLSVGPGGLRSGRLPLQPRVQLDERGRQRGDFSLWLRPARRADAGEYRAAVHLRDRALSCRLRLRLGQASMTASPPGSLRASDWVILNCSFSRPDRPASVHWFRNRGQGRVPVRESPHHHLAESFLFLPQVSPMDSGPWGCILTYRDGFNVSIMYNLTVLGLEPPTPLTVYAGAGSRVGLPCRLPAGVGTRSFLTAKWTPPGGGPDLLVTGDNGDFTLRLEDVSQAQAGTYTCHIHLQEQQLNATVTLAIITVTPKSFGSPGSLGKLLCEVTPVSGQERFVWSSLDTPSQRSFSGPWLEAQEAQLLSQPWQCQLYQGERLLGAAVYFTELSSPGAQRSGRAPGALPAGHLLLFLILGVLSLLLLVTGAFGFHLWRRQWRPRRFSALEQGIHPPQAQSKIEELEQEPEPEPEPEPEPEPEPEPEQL
Method: Each well was treated with stimulants. The cells were then fixed and blocked with Blocking buffer. The Primary antibodies were added. The wells were washed and a HRP-conjugated secondary antibody was added. The wells were washed with 1x PBS and a solution containing TMB (Biopanda, TMB-S-004) was added. The TMB reacted with HRP to change the color thereof from colorless to blue. An acid stop solution (Solarbio, C1058) was then added to stop the reaction and change the blue color to yellow.
Materials are listed below: [0072] […] 2) Blocking buffer: 1×PBS+3% BSA (Sigma, B2064); [0074] […] [0075] 4) Secondary antibody: Goat anti-human IgG1 Fc antibody, HRP (1:2500, invitrogen, A18817). [0076]

Binder	OD450 at 0.122 nM [2]	OD450 at 0.366 nM [2]	OD450 at 1.097 nM [2]	OD450 at 3.292 nM [2]	OD450 at 9.877 nM [2]	OD450 at 29.63 nM [2]	OD450 at 88.89 nM [2]	OD450 at 266.67 nM [2]	OD450 at 0.061 nM [3]	OD450 at 0.1829 nM [3]	OD450 at 0.5487 nM [3]	OD450 at 1.6461 nM [3]	OD450 at 4.9383 nM [3]	OD450 at 14.815 nM [3]	OD450 at 44.445 nM [3]	OD450 at 133.335 nM [3]	EC50 [4] [nM]	EC50 [5] [nM]	OD450 at 0.0045725 ug/ml [5]	OD450 at 0.0137174 ug/ml [5]	other results
sdAb No. 8 (VHH, Fc of the tested form not described; not shown: Fc part implied by anti-human Fc capture) VHH: QLQLVESGGGLVQPGGSLRLSCAASGFTLDYYAIGWFRQAPGKEREGVSCISSSDGSTYYADSVKGRFTISRDNAKNTVYLQMNSLKPEDTAIYYCARDSLSGSGYGCRGPYDYWGQGTQVTVSS																					Kd [1]: 0.347 nM; koff [1]: 0.000277 s⁻¹; kon [1]: 797000 M⁻¹ s⁻¹
sdAb No. 25-B5 (VHH, Humanized sdAb No. 25; not shown: Fc part implied by anti-human IgG1 Fc detection) VHH: QVQLVESGGGLVKPGGSLRLSCAASGSIESFSFMGWYRQAPGKQREWVAGFTGAASLSFSTYTDAVKGRFTISRDNAKNSLYLQMNSLRAEDTAVYYCNVDPWSQSWPGRYWGQGTTVTVSS	0.086	0.113	0.124	0.196	0.21	0.254	0.311	0.608	0.036	0.04	0.038	0.048	0.062	0.084	0.114	0.163					EC50 [3]: 452 nM
sdAb No. 25-B6 (VHH, Humanized sdAb No. 25; not shown: Fc part implied by anti-human IgG1 Fc detection) VHH: QLQLVESGGGLVKPGGSLRLSCAASGSIESFSFMGWYRQAPGKQREWVAGFTGAASLSFSTYTDAVKGRFTISRDNAKNSVYLQMNSLRAEDTAVYYCNVDPWSQSWPGRYWGQGTTVTVSS	0.056	0.07	0.095	0.166	0.306	0.399	0.888	1.47	0.037	0.039	0.037	0.044	0.053	0.069	0.085	0.128					
sdAb No. 17-H5 (VHH, Modified sdAb No. 17 (CDR1 and CDR2 DG to DA); not shown: Fc part implied by anti-human IgG1 Fc detection) VHH: QLQLVESGGGLVQPGGSLRLSCAASGLTLDAYAIGWFRQAPGKEREGLACISGSDASTHYLDSVKGRFTISRDNGKNTMALQMNSLQFGDTAIYYCAARRGSCSGSWTYWGQGTQVTVSS																	1.19				
sdAb No. 27-H1 (VHH, Modified sdAb No. 27 (CDR2 DG to DA); not shown: Fc part implied by anti-human IgG1 Fc detection) VHH: QVQLVESGGGLVQPGGSLRLSCAASGFTLDYYAIGWFRQAPGKEREGVSCIRSSDASTYYADSVKGRFTISSDNTKNTVYLQMNSLKPEDTAVYYCATDRYSDCRGPYENWGQGTQVTVSS																	3.28	1.4	0.076	0.171	OD450 at 0.0411523 ug/ml [5]: 0.359; OD450 at 0.1234568 ug/ml [5]: 0.719; OD450 at 0.3703704 ug/ml [5]: 1.08; OD450 at 1.111111 ug/ml [5]: 1.17; OD450 at 3.333333 ug/ml [5]: 1.24; OD450 at 10 ug/ml [5]: 1.33; OD450 at 0.004572 ug/ml [4]: 0.04; OD450 at 0.013717 ug/ml [4]: 0.043; OD450 at 0.041152 ug/ml [4]: 0.063; OD450 at 0.123457 ug/ml [4]: 0.36; OD450 at 0.37037 ug/ml [4]: 1.42; OD450 at 1.111111 ug/ml [4]: 1.8; OD450 at 3.333333 ug/ml [4]: 2; OD450 at 10 ug/ml [4]: 1.95
sdAb No. 27-H2 (VHH, Modified sdAb No. 27 (CDR2 DG to EG); not shown: Fc part implied by anti-human IgG1 Fc detection) VHH: QVQLVESGGGLVQPGGSLRLSCAASGFTLDYYAIGWFRQAPGKEREGVSCIRSSEGSTYYADSVKGRFTISSDNTKNTVYLQMNSLKPEDTAVYYCATDRYSDCRGPYENWGQGTQVTVSS																	3.73	1.55	0.075	0.152	OD450 at 0.0411523 ug/ml [5]: 0.314; OD450 at 0.1234568 ug/ml [5]: 0.626; OD450 at 0.3703704 ug/ml [5]: 1.07; OD450 at 1.111111 ug/ml [5]: 1.16; OD450 at 3.333333 ug/ml [5]: 1.14; OD450 at 10 ug/ml [5]: 1.2; OD450 at 0.004572 ug/ml [4]: 0.038; OD450 at 0.013717 ug/ml [4]: 0.043; OD450 at 0.041152 ug/ml [4]: 0.063; OD450 at 0.123457 ug/ml [4]: 0.334; OD450 at 0.37037 ug/ml [4]: 1.43; OD450 at 1.111111 ug/ml [4]: 1.96; OD450 at 3.333333 ug/ml [4]: 2.08; OD450 at 10 ug/ml [4]: 2.27
